T1: EtLPP1 (Eimeria tenella, UniProt A0A0A7H6F4)
T1 construct: full-length, 347 residues, calculated Mr 38239; His6-tagged (pcDNA3.1/His), transient in HEK293 cells, membrane fraction, Ni-NTA purified; bands 40 and 42 kDa, monomer
T1 sequence (A0A0A7H6F4 1-346): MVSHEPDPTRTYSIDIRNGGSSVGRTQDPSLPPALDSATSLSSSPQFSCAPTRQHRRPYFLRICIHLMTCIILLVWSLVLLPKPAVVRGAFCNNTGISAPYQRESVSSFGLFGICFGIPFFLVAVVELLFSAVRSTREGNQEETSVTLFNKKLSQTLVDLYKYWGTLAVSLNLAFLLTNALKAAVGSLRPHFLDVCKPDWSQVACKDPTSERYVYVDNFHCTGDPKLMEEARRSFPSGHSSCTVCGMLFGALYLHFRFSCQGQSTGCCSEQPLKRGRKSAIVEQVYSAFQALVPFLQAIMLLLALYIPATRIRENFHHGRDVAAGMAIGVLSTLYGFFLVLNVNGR


How the values were obtained:
EtLPP1 = molecular target: T1, EtLPP1; assay: PiPer phosphate-release fluorescence assay; assay type: biochemical; conditions: pH 6.5, 37°C, Triton X-100 mixed micelles, 1 mg/ml fatty-acid free BSA, Mg2+-independent
Source text: (§1) PiPer phosphate-release fluorescence assay on EtLPP1

[1] = substrate: CCCCCCCCCCCCC/C=C/[C@@H](O)[C@@H](N)COP(=O)(O)O; assay: PiPer phosphate-release fluorescence assay; assay type: biochemical, Eimeria tenella; conditions: pH 6.5, 37°C, Triton X-100 mixed micelles, 1 mg/ml fatty-acid free BSA, Mg2+-independent
Source text: as §1

Row | Molecule | Km (EtLPP1) [µM] | Km [1] [µM] | Vmax [1] [µmol/min/mg]
1 | LPA | 46 ± 9 | – | –
2 | EtLPP1 (Eimeria tenella) (protein, full-length, 347 residues, calculated Mr 38239; His6-tagged (pcDNA3.1/His), transient in HEK293 cells, membrane fraction, Ni-NTA purified; bands 40 and 42 kDa, monomer) MVSHEPDPTRTYSIDIRNGGSSVGRTQDPSLPPALDSATSLSSSPQFSCAPTRQHRRPYFLRICIHLMTCIILLVWSLVLLPKPAVVRGAFCNNTGISAPYQRESVSSFGLFGICFGIPFFLVAVVELLFSAVRSTREGNQEETSVTLFNKKLSQTLVDLYKYWGTLAVSLNLAFLLTNALKAAVGSLRPHFLDVCKPDWSQVACKDPTSERYVYVDNFHCTGDPKLMEEARRSFPSGHSSCTVCGMLFGALYLHFRFSCQGQSTGCCSEQPLKRGRKSAIVEQVYSAFQALVPFLQAIMLLLALYIPATRIRENFHHGRDVAAGMAIGVLSTLYGFFLVLNVNGR | – | 22 ± 6 | 0.00015

— publication PMC4393304, “Cloning and Characterization of Three Eimeria tenella Lipid Phosphate Phosphatases” (PLoS ONE, 2015)
